These results are taken from PMC10338343, “Relaxed targeting rules help PIWI proteins silence transposons”.

In the data set the target is MIWI (Mus musculus, UniProt Q9JMB7 1-862). The experiment in a line: double-filter binding; piRNA-1 guide; 3.5 mM Mg2+; RBNS: 25 mM HEPES-KOH pH 7.9, 110 mM KOAc, 3.5 mM MgOAc, 0.01% Triton X-100, 2 mM DTT, 10% glycerol, 2.5 mg/ml BSA, 0.5 mg/ml yeast tRNA, 100 nM RNA library, 33 C 2 h; double-filter: 30 mM HEPES-KOH pH 7.5, 120 mM KOAc, 3.5 mM MgOAc, 2 mM DTT, 0.01% Triton X-100, 0.1 nM target, 33 C 2 h. The following applies: protein: recombinant, tags: SNAP, 3xFlag, label: 5' 32P.
MIWI, sequence (Q9JMB7 whole entry): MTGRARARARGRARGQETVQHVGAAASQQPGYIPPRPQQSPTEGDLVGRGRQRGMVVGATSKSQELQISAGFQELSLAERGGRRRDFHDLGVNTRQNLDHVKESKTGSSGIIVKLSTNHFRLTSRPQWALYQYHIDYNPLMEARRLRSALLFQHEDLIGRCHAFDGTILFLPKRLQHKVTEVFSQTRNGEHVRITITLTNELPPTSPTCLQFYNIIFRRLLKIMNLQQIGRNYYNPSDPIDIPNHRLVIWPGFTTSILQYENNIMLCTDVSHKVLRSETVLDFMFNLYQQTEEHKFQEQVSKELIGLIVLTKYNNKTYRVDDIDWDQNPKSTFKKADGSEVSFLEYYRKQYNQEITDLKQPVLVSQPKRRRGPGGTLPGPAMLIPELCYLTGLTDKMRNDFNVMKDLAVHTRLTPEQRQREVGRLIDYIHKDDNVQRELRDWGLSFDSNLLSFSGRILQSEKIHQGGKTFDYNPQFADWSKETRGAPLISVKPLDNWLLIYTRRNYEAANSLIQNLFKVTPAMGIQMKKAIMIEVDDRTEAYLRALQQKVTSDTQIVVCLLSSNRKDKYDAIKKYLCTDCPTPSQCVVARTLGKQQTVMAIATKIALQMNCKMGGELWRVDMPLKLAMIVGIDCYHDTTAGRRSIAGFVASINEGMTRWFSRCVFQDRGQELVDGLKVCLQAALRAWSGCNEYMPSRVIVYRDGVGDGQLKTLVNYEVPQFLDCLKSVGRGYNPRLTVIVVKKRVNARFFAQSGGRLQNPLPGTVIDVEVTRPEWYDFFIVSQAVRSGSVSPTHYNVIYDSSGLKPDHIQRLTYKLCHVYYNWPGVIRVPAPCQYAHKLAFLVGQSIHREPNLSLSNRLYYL

In the case of AAAAAAAAAAAAAAAAAAAAUACUACCUCA (ssRNA, 5' monophosphate) [piRNA-1 g2-g10 target], the Kd (as a rule, the constant that tells how readily two partners part at equilibrium) (target pairs to guide g2-g10) amounted to 0.014 ± 0.009 nM.
Take AAAAAAAAAAAAAAACAACCUACAAAAAAA (ssRNA, 5' monophosphate) [piRNA-1 g8-g16 target]: where the note is “target pairs to guide g8-g16”, the equilibrium dissociation constant (Kd) was 0.08 ± 0.02 nM.
